Data on 45 variants can be found in the Human Domainome abundance scans (Beltran et al. 2025).

± gives the uncertainty stated by the source.

The labels stand for the following.
B1: RUN and FYVE domain-containing protein 1, residues 639 to 698; numbered along this chain, Q96T51 (parent)
chain: WLKDDEATHCRQCEKEFSISRRKHHCRNCGHIFCNTCSSNELALPSYPKPVRVCDSCHTL

The series covers variants of B1. As to the kind of experiment: abundance fitness (aPCA) (normalised: wild type 0, dead -1); higher = more abundant; growth selection in yeast, the domain comes from the species named. To be noted: Homo sapiens.
As for WLKDDEATHCRQCEKEFSISRRKWHCRNCGHIFCNTCSSNELALPSYPKPVRVCDSCHTL, the abundance fitness was -0.282 ± 0.048. To WLKDDEATHCRQCEKEFSISRRKTHCRNCGHIFCNTCSSNELALPSYPKPVRVCDSCHTL belongs -0.146 ± 0.051. Consider WLKDDEATHCRQCEKEFSISRRKRHCRNCGHIFCNTCSSNELALPSYPKPVRVCDSCHTL, for which the abundance fitness was -0.378 ± 0.045. Take WLKDDEATHCRQCEKEFSISRRKPHCRNCGHIFCNTCSSNELALPSYPKPVRVCDSCHTL: the abundance fitness is -0.97 ± 0.091. As to WLKDDEATHCRQCEKEFSISRRKFHCRNCGHIFCNTCSSNELALPSYPKPVRVCDSCHTL, the abundance fitness is -0.351 ± 0.063. The result for WLKDDEATHCRQCEKEFSISRRKMHCRNCGHIFCNTCSSNELALPSYPKPVRVCDSCHTL reads -0.148 ± 0.047. The result for WLKDDEATHCRQCEKEFSISRRKIHCRNCGHIFCNTCSSNELALPSYPKPVRVCDSCHTL reads -0.443 ± 0.061; that for WLKDDEATHCRQCEKEFSISRRKNHCRNCGHIFCNTCSSNELALPSYPKPVRVCDSCHTL, -0.256 ± 0.087. The result for WLKDDEATHCRQCEKEFSISRRKSHCRNCGHIFCNTCSSNELALPSYPKPVRVCDSCHTL reads -0.284 ± 0.039; that for WLKDDEATHCRQCEKEFSISRRKAHCRNCGHIFCNTCSSNELALPSYPKPVRVCDSCHTL, -0.266 ± 0.053. As to WLKDDEATHCRQCEKEFSISRRKCHCRNCGHIFCNTCSSNELALPSYPKPVRVCDSCHTL, the abundance fitness is -0.135 ± 0.066. The result for WLKDDEATHCRQCEKEFSISRRKVHCRNCGHIFCNTCSSNELALPSYPKPVRVCDSCHTL reads -0.166 ± 0.046.

With WLKDDEATHCRQCEKEFSISRRKGHCRNCGHIFCNTCSSNELALPSYPKPVRVCDSCHTL, the abundance fitness was -0.515 ± 0.066. For WLKDDEATHCRQCEKEFSISRRKDHCRNCGHIFCNTCSSNELALPSYPKPVRVCDSCHTL, the abundance fitness was -0.251 ± 0.071.

On to WLKDDEATHCRQCEKEFSISRRKQHCRNCGHIFCNTCSSNELALPSYPKPVRVCDSCHTL, for which the abundance fitness is -0.293 ± 0.062. The result for WLKDDEATHCRQCEKEFSISRRKLHCRNCGHIFCNTCSSNELALPSYPKPVRVCDSCHTL reads -0.458 ± 0.046.

On to WLKDDEATHCRQCEKEFSISRRKEHCRNCGHIFCNTCSSNELALPSYPKPVRVCDSCHTL, for which the abundance fitness was 0.051 ± 0.047. As to WLKDDEATHCRQCEKEFSISRRKHACRNCGHIFCNTCSSNELALPSYPKPVRVCDSCHTL, the abundance fitness worked out at 0.121 ± 0.045. To WLKDDEATHCRQCEKEFSISRQKHHCRNCGHIFCNTCSSNELALPSYPKPVRVCDSCHTL belongs -0.1 ± 0.048; to WLKDDEATHCRQCEKEFSISRMKHHCRNCGHIFCNTCSSNELALPSYPKPVRVCDSCHTL, 0.109 ± 0.047. The result for WLKDDEATHCRQCEKEFSISRSKHHCRNCGHIFCNTCSSNELALPSYPKPVRVCDSCHTL reads -0.32 ± 0.04. Take WLKDDEATHCRQCEKEFSISRNKHHCRNCGHIFCNTCSSNELALPSYPKPVRVCDSCHTL: the abundance fitness was -0.24 ± 0.1. The result for WLKDDEATHCRQCEKEFSISRVKHHCRNCGHIFCNTCSSNELALPSYPKPVRVCDSCHTL reads 0 ± 0.034; that for WLKDDEATHCRQCEKEFSISRPKHHCRNCGHIFCNTCSSNELALPSYPKPVRVCDSCHTL, -0.303 ± 0.054; that for WLKDDEATHCRQCEKEFSISRWKHHCRNCGHIFCNTCSSNELALPSYPKPVRVCDSCHTL, -0.18 ± 0.038. The result for WLKDDEATHCRQCEKEFSISRTKHHCRNCGHIFCNTCSSNELALPSYPKPVRVCDSCHTL reads -0.066 ± 0.045. To WLKDDEATHCRQCEKEFSISRYKHHCRNCGHIFCNTCSSNELALPSYPKPVRVCDSCHTL belongs -0.356 ± 0.077; to WLKDDEATHCRQCEKEFSISRRYHHCRNCGHIFCNTCSSNELALPSYPKPVRVCDSCHTL, -0.575 ± 0.095. With WLKDDEATHCRQCEKEFSISRRQHHCRNCGHIFCNTCSSNELALPSYPKPVRVCDSCHTL, the abundance fitness is -0.261 ± 0.055.

For the variant WLKDDEATHCRQCEKEFSISRRMHHCRNCGHIFCNTCSSNELALPSYPKPVRVCDSCHTL, the abundance fitness was -0.137 ± 0.049.

Turning to WLKDDEATHCRQCEKEFSISRRNHHCRNCGHIFCNTCSSNELALPSYPKPVRVCDSCHTL, the abundance fitness is -0.491 ± 0.074. WLKDDEATHCRQCEKEFSISRRPHHCRNCGHIFCNTCSSNELALPSYPKPVRVCDSCHTL: the abundance fitness was -0.494 ± 0.057. Consider WLKDDEATHCRQCEKEFSISRRWHHCRNCGHIFCNTCSSNELALPSYPKPVRVCDSCHTL, for which the abundance fitness was -0.243 ± 0.043. To WLKDDEATHCRQCEKEFSISRRCHHCRNCGHIFCNTCSSNELALPSYPKPVRVCDSCHTL belongs -0.176 ± 0.057; to WLKDDEATHCRQCEKEFSISRRGHHCRNCGHIFCNTCSSNELALPSYPKPVRVCDSCHTL, -0.034 ± 0.044. For WLKDDEATHCRQCEKEFSISRRTHHCRNCGHIFCNTCSSNELALPSYPKPVRVCDSCHTL, the abundance fitness is -0.204 ± 0.049. WLKDDEATHCRQCEKEFSISRREHHCRNCGHIFCNTCSSNELALPSYPKPVRVCDSCHTL: the abundance fitness was -0.165 ± 0.065.

For the variant WLKDDEATHCRQCEKEFSISRRDHHCRNCGHIFCNTCSSNELALPSYPKPVRVCDSCHTL, the abundance fitness was -0.315 ± 0.081.

For the variant WLKDDEATHCRQCEKEFSISRRFHHCRNCGHIFCNTCSSNELALPSYPKPVRVCDSCHTL, the abundance fitness was -0.362 ± 0.069. As for WLKDDEATHCRQCEKEFSISRRHHHCRNCGHIFCNTCSSNELALPSYPKPVRVCDSCHTL, the abundance fitness is -0.326 ± 0.077. As for WLKDDEATHCRQCEKEFSISRRLHHCRNCGHIFCNTCSSNELALPSYPKPVRVCDSCHTL, the abundance fitness is -0.433 ± 0.039. To WLKDDEATHCRQCEKEFSISRRRHHCRNCGHIFCNTCSSNELALPSYPKPVRVCDSCHTL belongs -0.069 ± 0.036.

Consider WLKDDEATHCRQCEKEFSISRRIHHCRNCGHIFCNTCSSNELALPSYPKPVRVCDSCHTL, for which the abundance fitness was -0.207 ± 0.086.

On to WLKDDEATHCRQCEKEFSISRRVHHCRNCGHIFCNTCSSNELALPSYPKPVRVCDSCHTL, for which the abundance fitness is -0.257 ± 0.037. For WLKDDEATHCRQCEKEFSISRRSHHCRNCGHIFCNTCSSNELALPSYPKPVRVCDSCHTL, the abundance fitness was -0.189 ± 0.041.
